According to paper PMC4577212, “X-Ray Structure and Mutagenesis Studies of the N-Isopropylammelide Isopropylaminohydrolase, AtzC” (PLoS ONE, 2015):

What was measured:
[1] = target: the molecule itself; assay: SEC; Superdex 200 prep-grade, 130 mL column, 50 mM TRIS pH 7.5, 100 mM NaCl; native molecular mass of ~210 kDa
[2] = target: the molecule itself; assay: crystal structure; thrombin-treated protein, 2.4 M sodium malonate pH 7; space group C2, half of the tetramer in the asymmetric unit; 1.84 Å; oligomer assessed with PISA

B1: N-isopropylammelide isopropylaminohydrolase AtzC from Pseudomonas sp. strain ADP, His-tagged (enzyme, UniProt O52063 1-403, looked up)
chain: MSKDFDLIIRNAYLSEKDSVYDIGIVGDRIIKIEAKIEGTVKDEIDAKGNLVSPGFVDAHTHMDKSFTSTGERLPKFWSRPYTRDAAIEDGLKYYKNATHEEIKRHVIEHAHMQVLHGTLYTRTHVDVDSVAKTKAVEAVLEAKEELKDLIDIQVVAFAQSGFFVDLESESLIRKSLDMGCDLVGGVDPATRENNVEGSLDLCFKLAKEYDVDIDYHIHDIGTVGVYSINRLAQKTIENGYKGRVTTSHAWCFADAPSEWLDEAIPLYKDSGMKFVTCFSSTPPTMPVIKLLEAGINLGCASDNIRDFWVPFGNGDMVQGALIETQRLELKTNRDLGLIWKMITSEGARVLGIEKNYGIEVGKKADLVVLNSLSPQWAIIDQAKRLCVIKNGRIIVKDEVIVA
notes: AtzC, N-isopropylammelide isopropylaminohydrolase (E.C. 3.5.99.4), Pseudomonas sp. strain ADP; The tag carries a thrombin site; also called wild-type AtzC; tagged AtzC protein; source: E. coli BL21 (λDE3), purified (Ni-NTA, Superdex 200 SEC); not shown: His-tag, N-terminal, kept
In the case of B1, the “stoichiometry N” value [1] is reported as 4.

B2: N-isopropylammelide isopropylaminohydrolase AtzC from Pseudomonas sp. strain ADP, thrombin-treated (His-tag removed) (enzyme, UniProt O52063 1-403, looked up)
chain: B1 chain
notes: AtzC, N-isopropylammelide isopropylaminohydrolase (E.C. 3.5.99.4), Pseudomonas sp. strain ADP; unmodified atzC gene (GenBank U66917.2) in pETCC2; tag removed by thrombin in the crystallisation sample without further purification; One Zn2+ ion per monomer; malonate in the active site of the crystal; also called WT; native protein; source: E. coli BL21 (λDE3), purified (Ni-NTA, Superdex 200 SEC), …
B2 was tested, and the “stoichiometry N” value [2] was 4.
